In paper PMC5058626 (mAbs, 2016):
Where two headings read alike, the source gives them in different places. Blank lines part the entries; values can stand above or below the molecule they belong to.

Assays:
Assay in all cases: SPR
[1] = molecular target: CA645 gL4gH5 Fab (human) [IgG part: P01857]
[2] = molecular target: CA645 gL4gH5 Fab (human) [IgG part: P01857]; remark: listed apart in the source
[3] = molecular target: CA645 gL4gH5 Fab (human) [IgG part: P01857]; remark: listed apart in the source
[4] = molecular target: CA645 gL4gH5 Fab (human) [IgG part: P01857]; remark: listed apart in the source
[5] = molecular target: CA645 gL4gH5 Fab (human) [IgG part: P01857]; remark: listed apart in the source
[6] = molecular target: CA645 gL4gH5 Fab (human) [IgG part: P01857]; remark: listed apart in the source
[7] = molecular target: T1, human serum albumin (Homo sapiens, UniProt P02768)
[8] = molecular target: mouse serum albumin (Mus musculus, UniProt P07724)
[9] = molecular target: T1, human serum albumin; remark: listed apart in the source
[10] = molecular target: human serum albumin (Homo sapiens, UniProt P02768); remark: listed apart in the source
[11] = molecular target: T1, human serum albumin; remark: listed apart in the source
[12] = molecular target: T1, human serum albumin; remark: listed apart in the source

Sequence of mouse serum albumin (P07724 25-608): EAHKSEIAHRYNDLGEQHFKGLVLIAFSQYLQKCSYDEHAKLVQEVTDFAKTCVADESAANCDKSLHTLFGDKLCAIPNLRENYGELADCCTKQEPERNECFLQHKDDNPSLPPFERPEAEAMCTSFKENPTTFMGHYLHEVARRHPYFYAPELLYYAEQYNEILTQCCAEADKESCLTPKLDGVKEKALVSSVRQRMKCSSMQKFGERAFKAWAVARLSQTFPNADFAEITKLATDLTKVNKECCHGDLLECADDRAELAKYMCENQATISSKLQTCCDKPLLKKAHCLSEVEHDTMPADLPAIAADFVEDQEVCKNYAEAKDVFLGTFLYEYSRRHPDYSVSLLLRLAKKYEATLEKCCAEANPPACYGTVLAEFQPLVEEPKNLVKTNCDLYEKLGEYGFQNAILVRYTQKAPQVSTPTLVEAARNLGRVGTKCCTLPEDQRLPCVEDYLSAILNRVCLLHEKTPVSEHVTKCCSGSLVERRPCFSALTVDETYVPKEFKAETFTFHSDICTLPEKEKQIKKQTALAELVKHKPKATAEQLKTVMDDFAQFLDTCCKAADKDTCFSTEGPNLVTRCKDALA

Kd [1]: 1.8 nM | Kd [2]: 1.23 nM | Kd [3]: 4.6 nM | Kd [4]: 12.5 nM | Kd [5]: 10.7 nM | Kd [6]: 13.3 nM
Molecule: human serum albumin (from UniProt P02768 25-609) (natural protein)

Kd [7]: 0.31 nM | Kd [8]: 2.6 nM
B1: CA645 recombinant rabbit Fab (Fab, V domains shown)
VH: QSLEESGGRLVTPGTPLTLTCTVSGIDLSNYAINWVRQAPGKGLEWIGIIWASGTTFYATWAKGRFTISRPSTTVDLEMTSLTTADTATYFCARTVPGYSTAPYFDLWGPGTLVTVSS
VL: AAVLTQTPSPVSAAVGGTVTINCQSSPSVWSNFLSWYQQKPGQPPKLLIYEASKLTSGVPSRFKGSGSGTQFTLTISDVQCGDAATYYCGGGYSSISDTTFGGGTKVVVK

Kd [9]: 453 nM | koff [9]: 0.0571 s⁻¹ | kon [9]: 126000 M⁻¹ s⁻¹
B2: CA645 gL5gH5 Fab (Fab, V domains shown)
VH: EVQLLESGGGLVQPGGSLRLSCAVSGIDLSNYAINWVRQAPGKGLEWIGIIWASGTTFYATWAKGRFTISRDNSKNTVYLQMNSLRAEDTAVYYCARTVPGYSTAPYFDLWGQGTLVTVSS
VL: DIQMTQSPSSVSASVGDRVTITCQSSPSVASNFLSWYQQKPGKAPKLLIYEASKLTSGVPSRFSGSGSGTDFTLTISSLQPEDFATYYCGGGYSSISDTTFGGGTKVEIK

Kd [9]: 955 nM | koff [9]: 0.0583 s⁻¹ | kon [9]: 61000 M⁻¹ s⁻¹
B3: CA645 gL4gH37 Fab (Fab, V domains shown)
VH: EVQLLESGGGLVQPGGSLRLSCAVSGIDLSNYAINWVRQAPGKGLEWIGIIWASGTTEYATWAKGRFTISRDNSKNTVYLQMNSLRAEDTAVYYCARTVPGYSTAPYFDLWGQGTLVTVSS
VL: DIQMTQSPSSVSASVGDRVTITCQSSPSVWSNFLSWYQQKPGKAPKLLIYEASKLTSGVPSRFSGSGSGTDFTLTISSLQPEDFATYYCGGGYSSISDTTFGGGTKVEIK

Kd [10]: 5 nM
B4: CA645 gL19gH5 Fab (Fab, V domains shown)
VH: EVQLLESGGGLVQPGGSLRLSCAVSGIDLSNYAINWVRQAPGKGLEWIGIIWASGTTFYATWAKGRFTISRDNSKNTVYLQMNSLRAEDTAVYYCARTVPGYSTAPYFDLWGQGTLVTVSS
VL: DIQMTQSPSSVSASVGDRVTITCQSSPSVWDNFLSWYQQKPGKAPKLLIYEASKLTSGVPSRFSGSGSGTDFTLTISSLQPEDFATYYCGGGYSSISDTTFGGGTKVEIK

Kd [11]: 52000 nM
B5: CA645 gL5gH47 Fab (Fab, V domains shown)
VH: EVQLLESGGGLVQPGGSLRLSCAVSGIDLSNYAINWVRQAPGKGLEWIGIIWASGTTFYATWAKGRFTISRDNSKNTVYLQMNSLRAEDTAVYYCARTVPGYSSAPYFDLWGQGTLVTVSS
VL: DIQMTQSPSSVSASVGDRVTITCQSSPSVASNFLSWYQQKPGKAPKLLIYEASKLTSGVPSRFSGSGSGTDFTLTISSLQPEDFATYYCGGGYSSISDTTFGGGTKVEIK

binding result [12]: no binding
B6: CA645 gL5gH37 Fab (Fab, V domains shown)
VH: EVQLLESGGGLVQPGGSLRLSCAVSGIDLSNYAINWVRQAPGKGLEWIGIIWASGTTEYATWAKGRFTISRDNSKNTVYLQMNSLRAEDTAVYYCARTVPGYSTAPYFDLWGQGTLVTVSS
VL: DIQMTQSPSSVSASVGDRVTITCQSSPSVASNFLSWYQQKPGKAPKLLIYEASKLTSGVPSRFSGSGSGTDFTLTISSLQPEDFATYYCGGGYSSISDTTFGGGTKVEIK
